The target in the experiment is invariant chain (Ii), endogenous in Raji cells (human (endogenous in Raji)) (UniProt P04233). Briefly: cross-linking; pooled sucrose gradient fractions 7/8 or 14/15 of Raji cell lysate; increasing DSP (up to 200 µg/ml), 2 h on ice; non-reducing SDS-PAGE; western blot for DRα (TAL-1B5) or Ii (Bu43).

Experimental findings from paper PMC3043101 are described below.

As a reminder, the stoichiometry N is a count of units in the complex or per binding partner.

Turning to “invariant chain (Ii), endogenous in Raji cells (from UniProt P04233 1-296) (natural protein)”, the stoichiometry N amounted to 3.
